Source: publication PMC7337493 (The Journal of Cell Biology, 2020)

B1: FIP200NTD (domain or fragment, human, UniProt Q8TDY2 1-640, looked up)
chain: MKLYVFLVNTGTTLTFDTELTVQTVADLKHAIQSKYKIAIQHQVLVVNGGECMAADRRVCTYSAGTDTNPIFLFNKEMILCDRPPAIPKTTFSTENDMEIKVEESLMMPAVFHTVASRTQLALEMYEVAKKLCSFCEGLVHDEHLQHQGWAAIMANLEDCSNSYQKLLFKFESIYSNYLQSIEDIKLKLTHLGTAVSVMAKIPLLECLTRHSYRECLGRLDSLPEHEDSEKAEMKRSTELVLSPDMPRTTNESLLTSFPKSVEHVSPDTADAESGKEIRESCQSTVHQQDETTIDTKDGDLPFFNVSLLDWINVQDRPNDVESLVRKCFDSMSRLDPRIIRPFIAECRQTIAKLDNQNMKAIKGLEDRLYALDQMIASCGRLVNEQKELAQGFLANQKRAENLKDASVLPDLCLSHANQLMIMLQNHRKLLDIKQKCTTAKQELANNLHVRLKWCCFVMLHADQDGEKLQALLRLVIELLERVKIVEALSTVPQMYCLAVVEVVRRKMFIKHYREWAGALVKDGKRLYEAEKSKRESFGKLFRKSFLRNRLFRGLDSWPPSFCTQKPRKFDCELPDISLKDLQFLQSFCPSEVQPFLRVPLLCDFEPLHQHVLALHNLVKAAQSLDEMSQTITDLLSEQK
notes: FIP200 (RB1CC1), human, N-terminal domain, residues 1-640 of 1,594; the form printed without a tag in NSEM, MALS, HDX-MS and cryo-EM samples; also called FIP200 N-terminal domain; untagged FIP200NTD

Tests used:
FIP200NTD [1] = target: B1; experiment: SEC-MALS; Superose 6 Increase 10/300 GL; 50 mM Tris, 150 mM NaCl, 1 mM TCEP, pH 7.8; sample ~6–10 µM, 100 µl injected; conditions: both partners purified
[2] = target: the molecule itself; experiment: as above
[3] = target: the molecule itself; experiment: negative stain EM; purified samples diluted to ~50–200 nM, uranyl acetate stain, 2D classification; MBP tags used to mark positions
FIP200NTD [4] = target: B1; experiment: as above; conditions: both partners purified

Row | stoichiometry N (FIP200NTD [1]) | Binder | stoichiometry N [3] | also measured
1 | 0.5 molecules per molecule of FIP200NTD (2:1 FIP200NTD:binder) | ATG13(363-C) (domain or fragment, human, UniProt O75143 363-517, looked up, ATG13, human, residue 363 to the C terminus) HDVLETIFVRKVGAFVNKPINQVTLTSLDIPFAMFAPKNLELEDTDPMVNPPDSPETESPLQGSLHSDGSSGGSSGNTHDDFVMIDFKPAFSKDDILPMDLGTFYREFQNPPQLSSLSIDIGAQSMAEDLDSLPEKLAVHEKNVREFDAFVETLQ |  | 
2 |  | B1 |  | stoichiometry N [2]: 2
3 |  | MBP-FIP200NTD (domain or fragment, human, UniProt Q8TDY2 1-640, looked up, FIP200 (RB1CC1), human, N-terminal domain, residues 1-640; also called N-terminal MBP–tagged FIP200NTD; not shown: MBP, N-terminal, kept) MKLYVFLVNTGTTLTFDTELTVQTVADLKHAIQSKYKIAIQHQVLVVNGGECMAADRRVCTYSAGTDTNPIFLFNKEMILCDRPPAIPKTTFSTENDMEIKVEESLMMPAVFHTVASRTQLALEMYEVAKKLCSFCEGLVHDEHLQHQGWAAIMANLEDCSNSYQKLLFKFESIYSNYLQSIEDIKLKLTHLGTAVSVMAKIPLLECLTRHSYRECLGRLDSLPEHEDSEKAEMKRSTELVLSPDMPRTTNESLLTSFPKSVEHVSPDTADAESGKEIRESCQSTVHQQDETTIDTKDGDLPFFNVSLLDWINVQDRPNDVESLVRKCFDSMSRLDPRIIRPFIAECRQTIAKLDNQNMKAIKGLEDRLYALDQMIASCGRLVNEQKELAQGFLANQKRAENLKDASVLPDLCLSHANQLMIMLQNHRKLLDIKQKCTTAKQELANNLHVRLKWCCFVMLHADQDGEKLQALLRLVIELLERVKIVEALSTVPQMYCLAVVEVVRRKMFIKHYREWAGALVKDGKRLYEAEKSKRESFGKLFRKSFLRNRLFRGLDSWPPSFCTQKPRKFDCELPDISLKDLQFLQSFCPSEVQPFLRVPLLCDFEPLHQHVLALHNLVKAAQSLDEMSQTITDLLSEQK | 2 | 
4 |  | FIP200NTD–MBP (domain or fragment, human, UniProt Q8TDY2 1-640, looked up, FIP200 (RB1CC1), human, N-terminal domain, residues 1-640 of 1,594; also called FIP200(N-640)–MBP; FIP200-MBP; not shown: GST, N-terminal, cleaved; MBP, C-terminal, kept) MKLYVFLVNTGTTLTFDTELTVQTVADLKHAIQSKYKIAIQHQVLVVNGGECMAADRRVCTYSAGTDTNPIFLFNKEMILCDRPPAIPKTTFSTENDMEIKVEESLMMPAVFHTVASRTQLALEMYEVAKKLCSFCEGLVHDEHLQHQGWAAIMANLEDCSNSYQKLLFKFESIYSNYLQSIEDIKLKLTHLGTAVSVMAKIPLLECLTRHSYRECLGRLDSLPEHEDSEKAEMKRSTELVLSPDMPRTTNESLLTSFPKSVEHVSPDTADAESGKEIRESCQSTVHQQDETTIDTKDGDLPFFNVSLLDWINVQDRPNDVESLVRKCFDSMSRLDPRIIRPFIAECRQTIAKLDNQNMKAIKGLEDRLYALDQMIASCGRLVNEQKELAQGFLANQKRAENLKDASVLPDLCLSHANQLMIMLQNHRKLLDIKQKCTTAKQELANNLHVRLKWCCFVMLHADQDGEKLQALLRLVIELLERVKIVEALSTVPQMYCLAVVEVVRRKMFIKHYREWAGALVKDGKRLYEAEKSKRESFGKLFRKSFLRNRLFRGLDSWPPSFCTQKPRKFDCELPDISLKDLQFLQSFCPSEVQPFLRVPLLCDFEPLHQHVLALHNLVKAAQSLDEMSQTITDLLSEQK | 2 | 
5 | 0.5 molecules per molecule of FIP200NTD (2:1 FIP200NTD:binder) | MBP-ATG13MR (domain or fragment, human, UniProt O75143 363-460, looked up, ATG13, human, middle region, residues 363-460; not shown: MBP, N-terminal, kept) HDVLETIFVRKVGAFVNKPINQVTLTSLDIPFAMFAPKNLELEDTDPMVNPPDSPETESPLQGSLHSDGSSGGSSGNTHDDFVMIDFKPAFSKDDILP |  | stoichiometry N (FIP200NTD [4]): 1 per FIP200NTD dimer
